From the supplement of paper PMC10567573

B1: LOXL2 (parent)
chain: YVEVKEGKTWKQICDKHWTAKNSR

Variants of: B1
Test: protein stability index of a GFP-peptide fusion (GPS, HEK-293T) (PSI 1-6); higher = more stable
Settings: c terminus: a fixed tail appended
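Also: lentivirally expressed fusions sorted by FACS into six bins by GFP to DsRed ratio, PSI derived from sequencing read proportions per bin multiplied by bin number.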

| Variant | protein stability index |
| --- | --- |
| YVEVKHGKTWKQICDKHWTAKNSR | 2.64 |
| YVEVKQGKTWKQICDKHWTAKNSR | 4.18 |
| YVEVKVGKTWKQICDKHWTAKNSR | 3.77 |
| YVEVKYGKTWKQICDKHWTAKNSR | 2.65 |
| YVEVKNGKTWKQICDKHWTAKNSR | 2.44 |
| YVEVKWGKTWKQICDKHWTAKNSR | 2.16 |
| YVEVKIGKTWKQICDKHWTAKNSR | 1.47 |
| YVEVKKGKTWKQICDKHWTAKNSR | 2.89 |
| YVEVKFGKTWKQICDKHWTAKNSR | 2.49 |
| YVEVKLGKTWKQICDKHWTAKNSR | 2.79 |
| YVEVKRGKTWKQICDKHWTAKNSR | 1.84 |
| YVEVKDGKTWKQICDKHWTAKNSR | 2.9 |
| YVEVKPGKTWKQICDKHWTAKNSR | 2.18 |
| YVEVKGGKTWKQICDKHWTAKNSR | 3.33 |
| YVEVKMGKTWKQICDKHWTAKNSR | 2.88 |
| YVEVKSGKTWKQICDKHWTAKNSR | 1.99 |
| YVEVKTGKTWKQICDKHWTAKNSR | 2.77 |
| YVEVKAGKTWKQICDKHWTAKNSR | 2.14 |
| YVEVKCGKTWKQICDKHWTAKNSR | 3.35 |
| YVEVKEGKVWKQICDKHWTAKNSR | 1.94 |
| YVEVKEGKKWKQICDKHWTAKNSR | 2.43 |
| YVEVKEGKHWKQICDKHWTAKNSR | 1.86 |
| YVEVKEGKRWKQICDKHWTAKNSR | 2.55 |
| YVEVKEGKFWKQICDKHWTAKNSR | 4.42 |

| Variant | protein stability index |
| --- | --- |
| YVEVKEGKCWKQICDKHWTAKNSR | 4.04 |
| YVEVKEGKEWKQICDKHWTAKNSR | 1.61 |
| YVEVKEGKWWKQICDKHWTAKNSR | 3.01 |
| YVEVKEGKGWKQICDKHWTAKNSR | 2.11 |
| YVEVKEGKYWKQICDKHWTAKNSR | 2.33 |
| YVEVKEGKMWKQICDKHWTAKNSR | 2.92 |
| YVEVKEGKPWKQICDKHWTAKNSR | 2 |
| YVEVKEGKIWKQICDKHWTAKNSR | 2.48 |
| YVEVKEGKSWKQICDKHWTAKNSR | 2.56 |
| YVEVKEGKLWKQICDKHWTAKNSR | 2.52 |
| YVEVKEGKDWKQICDKHWTAKNSR | 1.6 |
| YVEVKEGKNWKQICDKHWTAKNSR | 1.99 |
| YVEVVEGKTWKQICDKHWTAKNSR | 2.63 |
| YVEVMEGKTWKQICDKHWTAKNSR | 2.33 |
| YVEVSEGKTWKQICDKHWTAKNSR | 1.46 |
| YVEVHEGKTWKQICDKHWTAKNSR | 1.85 |
| YVEVEEGKTWKQICDKHWTAKNSR | 1.7 |
| YVEVPEGKTWKQICDKHWTAKNSR | 1.7 |
| YVEVDEGKTWKQICDKHWTAKNSR | 2.54 |
| YVEVYEGKTWKQICDKHWTAKNSR | 1.78 |
| YVEVAEGKTWKQICDKHWTAKNSR | 3.18 |
| YVEVIEGKTWKQICDKHWTAKNSR | 2.46 |
| YVEVREGKTWKQICDKHWTAKNSR | 3.94 |
| YVEVNEGKTWKQICDKHWTAKNSR | 1.86 |

| Variant | protein stability index |
| --- | --- |
| YVEVCEGKTWKQICDKHWTAKNSR | 1.65 |
| YVEVTEGKTWKQICDKHWTAKNSR | 2.35 |
| YVEVLEGKTWKQICDKHWTAKNSR | 2.65 |
| YVEVQEGKTWKQICDKHWTAKNSR | 3.01 |
| YVEVWEGKTWKQICDKHWTAKNSR | 2.87 |
| YVEVGEGKTWKQICDKHWTAKNSR | 2.46 |
| YVEVKEHKTWKQICDKHWTAKNSR | 1.62 |
| YVEVKEKKTWKQICDKHWTAKNSR | 1.91 |
| YVEVKENKTWKQICDKHWTAKNSR | 2.64 |
| YVEVKEPKTWKQICDKHWTAKNSR | 1.96 |
| YVEVKETKTWKQICDKHWTAKNSR | 1.24 |
| YVEVKEYKTWKQICDKHWTAKNSR | 2.18 |
| YVEVKEDKTWKQICDKHWTAKNSR | 1.6 |
| YVEVKEFKTWKQICDKHWTAKNSR | 1.65 |
| YVEVKEIKTWKQICDKHWTAKNSR | 1.85 |
| YVEVKEWKTWKQICDKHWTAKNSR | 2.52 |
| YVEVKEEKTWKQICDKHWTAKNSR | 1.7 |
| YVEVKERKTWKQICDKHWTAKNSR | 1.62 |
| YVEVKECKTWKQICDKHWTAKNSR | 2.29 |
| YVEVKEMKTWKQICDKHWTAKNSR | 1.72 |
| YVEVKEVKTWKQICDKHWTAKNSR | 2.8 |
| YVEVKEAKTWKQICDKHWTAKNSR | 1.61 |
| YVEVKELKTWKQICDKHWTAKNSR | 1.95 |
| YVEVKESKTWKQICDKHWTAKNSR | 1.86 |

| Variant | protein stability index |
| --- | --- |
| YVEVKEQKTWKQICDKHWTAKNSR | 2.42 |
| YDEVKEGKTWKQICDKHWTAKNSR | 3.58 |
| YTEVKEGKTWKQICDKHWTAKNSR | 2.22 |
| YNEVKEGKTWKQICDKHWTAKNSR | 3.69 |
| YYEVKEGKTWKQICDKHWTAKNSR | 2.8 |
| YQEVKEGKTWKQICDKHWTAKNSR | 2.16 |
| YFEVKEGKTWKQICDKHWTAKNSR | 2.21 |
| YEEVKEGKTWKQICDKHWTAKNSR | 3.7 |
| YCEVKEGKTWKQICDKHWTAKNSR | 2.09 |
| YWEVKEGKTWKQICDKHWTAKNSR | 1.98 |
| YKEVKEGKTWKQICDKHWTAKNSR | 3 |
| YLEVKEGKTWKQICDKHWTAKNSR | 2.72 |
| YGEVKEGKTWKQICDKHWTAKNSR | 1.98 |
| YREVKEGKTWKQICDKHWTAKNSR | 3.03 |
| YSEVKEGKTWKQICDKHWTAKNSR | 2.86 |
| YHEVKEGKTWKQICDKHWTAKNSR | 1.55 |
| YIEVKEGKTWKQICDKHWTAKNSR | 2.66 |
| YAEVKEGKTWKQICDKHWTAKNSR | 1.78 |
| YMEVKEGKTWKQICDKHWTAKNSR | 2.96 |
| YPEVKEGKTWKQICDKHWTAKNSR | 2.12 |
| YVEVKEGKTWKAICDKHWTAKNSR | 1.56 |
| YVEVKEGKTWKCICDKHWTAKNSR | 1.58 |
